The chains are these.
B1: CPEB3 Ribozyme (parent)
chain: UAACAGGGGGCCACAGCAGAAGCGUUCACGUCGCAGCCCCUGUCAGAUUCUGGUGAAUCUGCGAAUUCUGCUGUAUAUCUC

Among the data in the RNAGym collection of RNA variant scans (doi:10.1093/nar/gkz1192) are self-cleavage values, retold here.

The series covers variants of B1. In words: self-cleavage, relative activity (ratio to wild type); higher = more cleavage; in vitro, sequencing. In short, it runs like this:
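For each CPEB3 ribozyme variant, relative activity is its cleaved/total read fraction divided by the unmutated ribozyme's. Barcoded error-prone PCR libraries were transcribed by T7 RNA polymerase (5 hours, 37°C) and held in DNase I for 15 min before an EDTA stop, with cleavage occurring throughout. Template-switching reverse transcription and Illumina sequencing were used to read the RNAs. A 5-read minimum applied, and results are the mean of three batches.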
Take A2G U76C: the self-cleavage is 0.73.

In the case of A3G A35U, the self-cleavage was 0.64.

For A3G A35G, the self-cleavage came to 1.21.

A3G A35C: the self-cleavage is 0.9.

Turning to A2U G6A, the self-cleavage was 0.66.

Turning to A2G C29U, the self-cleavage is 0.24.

As to A2G C29A, the self-cleavage was found to be 0.13.

Turning to A3G A57U, the self-cleavage worked out at 0.69.

Regarding A3G A57C, the self-cleavage was 0.49.

On to A3G A57G, for which the self-cleavage is 0.86.

For A3G A15G, the self-cleavage was 0.84.

Consider A3G A15U, for which the self-cleavage stood at 0.78.

Take A3G A15C: the self-cleavage was 0.95.

A2U C62G: the self-cleavage turned out to be 0.31.

As for A2U C62U, the self-cleavage stood at 0.31.

As for A3C A75G, the self-cleavage is 1.14.

A3C U25C: the self-cleavage worked out at 0.44.

As for A3C U25G, the self-cleavage came out at 0.55.

A3C U25A: the self-cleavage is 0.4.

Take A2U A75U: the self-cleavage was found to be 1.09.

As to A2U A75G, the self-cleavage worked out at 1.04.

With A3G A64G, the self-cleavage turned out to be 0.92.

Regarding A2U A45U, the self-cleavage worked out at 0.54.

On to A2U A45G, for which the self-cleavage is 0.85.

Regarding A2U A20C, the self-cleavage stood at 0.32.

On to A2U A20U, for which the self-cleavage was 0.41.

As to A2U A20G, the self-cleavage amounted to 0.69.

On to A3C C11U, for which the self-cleavage came to 0.88.

Turning to A2G A64U, the self-cleavage was determined as 0.33.

For A2G A64G, the self-cleavage is 0.55.

In the case of A2G U66C, the self-cleavage came out at 0.2.

Consider A2G U66G, for which the self-cleavage worked out at 0.28.

A2U A56G: the self-cleavage is 0.88.

For A2U A56C, the self-cleavage was 0.73.

Turning to A2U A56U, the self-cleavage came out at 0.4.

On to A2G A57U, for which the self-cleavage was found to be 0.28.

With A2G A57G, the self-cleavage stood at 0.5.

For the variant A2U G42A, the self-cleavage turned out to be 0.43.

For the variant A3C U69A, the self-cleavage stood at 1.08.

Regarding A3C U43A, the self-cleavage came to 1.24.

As to A3C U43C, the self-cleavage turned out to be 0.81.

As for A2U G22A, the self-cleavage was determined as 0.22.

With A2U G9A, the self-cleavage worked out at 0.15.

On to A2U G9C, for which the self-cleavage is 0.45.

As to A3C G7U, the self-cleavage is 0.39.

Take A2G C38U: the self-cleavage was 0.68.

Turning to A3C U31G, the self-cleavage amounted to 0.93.

Consider A3G A13C, for which the self-cleavage amounted to 1.02.

Consider A3G A13U, for which the self-cleavage turned out to be 1.02.

As for A3G A13G, the self-cleavage is 0.95.

As for A2G C59A, the self-cleavage came out at 0.23.

With A2G C59G, the self-cleavage stood at 0.24.

For the variant A3C G33C, the self-cleavage came to 0.35.

For the variant A2G U41C, the self-cleavage was found to be 0.78.

Turning to A2G U41G, the self-cleavage turned out to be 0.49.

As for A2G U41A, the self-cleavage came out at 0.42.

Turning to A3C A47G, the self-cleavage was 1.12.

A3C U41G: the self-cleavage amounted to 0.56.

Take A3C U41C: the self-cleavage was 1.02.

Consider A3C U41A, for which the self-cleavage turned out to be 0.24.

On to A2U U48C, for which the self-cleavage came out at 0.62.

As for A3C C62U, the self-cleavage was found to be 0.29.

Regarding A3C A45U, the self-cleavage worked out at 0.89.

On to A3C A45G, for which the self-cleavage came to 0.93.

Consider A2U U74C, for which the self-cleavage turned out to be 0.91.

Take A2G A77G: the self-cleavage was determined as 0.64.

Regarding A2G A77C, the self-cleavage came out at 0.54.

As to A2G A77U, the self-cleavage worked out at 0.62.

As to A2U C17U, the self-cleavage came out at 0.31.

In the case of A2G C32A, the self-cleavage was found to be 0.1.

Turning to A2G C32U, the self-cleavage is 0.3.

Regarding A2G G7U, the self-cleavage was determined as 0.42.

Regarding A2U U43A, the self-cleavage amounted to 1.05.

On to A2U U43C, for which the self-cleavage came to 0.47.

Turning to A2U U78C, the self-cleavage turned out to be 0.87.

Regarding A2G C37U, the self-cleavage is 0.66.

For the variant A2G C37A, the self-cleavage stood at 0.27.

With A3C A57G, the self-cleavage worked out at 1.19.

A2U A47G: the self-cleavage stood at 1.11.

With A2G A75G, the self-cleavage was 0.54.

In the case of A2G A75U, the self-cleavage was found to be 0.84.

A3C: the self-cleavage came out at 1.16.

Take A3G: the self-cleavage was 1.02.

Regarding A2G G46A, the self-cleavage came to 0.28.

For the variant A2G G46U, the self-cleavage is 0.3.

In the case of A2U G36A, the self-cleavage worked out at 0.29.

As for A3C U76A, the self-cleavage was determined as 1.

Consider A2G C27U, for which the self-cleavage was determined as 0.4.

In the case of A2G C27A, the self-cleavage was 0.36.

As for A2G U25A, the self-cleavage worked out at 0.36.

As for A2G U25C, the self-cleavage is 0.49.

On to A3C U54C, for which the self-cleavage came to 1.17.

Consider A3G A47U, for which the self-cleavage came to 0.48.

As to A3G A47G, the self-cleavage was determined as 0.92.

In the case of A2G G33U, the self-cleavage amounted to 0.3.

As for A2G G33C, the self-cleavage was found to be 0.32.

As for A3C U72A, the self-cleavage was 1.09.

In the case of A2U C12G, the self-cleavage worked out at 0.19.

Regarding A2U C12U, the self-cleavage amounted to 1.18.

A2G A47C: the self-cleavage was found to be 0.29.

Consider A2G A47G, for which the self-cleavage is 0.48.

A2G G24A: the self-cleavage worked out at 0.3.

In the case of A2G G52A, the self-cleavage was 0.65.

A2G G52C: the self-cleavage stood at 0.83.

For A2G G52U, the self-cleavage is 0.77.

In the case of A3C C17U, the self-cleavage was determined as 0.54.

As for A2G A18U, the self-cleavage was found to be 0.38.

Regarding A2G A20G, the self-cleavage amounted to 0.61.

Take A2G A20U: the self-cleavage worked out at 0.39.

For A2U U76A, the self-cleavage amounted to 1.14.

Consider A2U U76C, for which the self-cleavage turned out to be 1.15.

On to A2G A28C, for which the self-cleavage was 0.38.

As for A2G A28G, the self-cleavage was 0.4.

For A2G A28U, the self-cleavage came to 0.52.

As for A2U C23U, the self-cleavage is 0.35.

Regarding A3C C44G, the self-cleavage worked out at 0.84.

As to A2U, the self-cleavage came to 0.96.

In the case of A2G U49A, the self-cleavage was determined as 0.42.

On to A2G U49C, for which the self-cleavage was 0.32.

In the case of A2G A56U, the self-cleavage came out at 0.31.

On to A2G A56G, for which the self-cleavage was determined as 0.5.

Regarding A2G U78C, the self-cleavage stood at 0.58.

Consider A2G U78A, for which the self-cleavage is 0.75.

With A3C A65G, the self-cleavage is 0.92.

Turning to A3C A65U, the self-cleavage was 0.95.

As for A2U C44A, the self-cleavage came out at 0.24.

On to A2G A65G, for which the self-cleavage turned out to be 0.29.

On to A2G A65U, for which the self-cleavage came out at 0.38.

As to A2G U67C, the self-cleavage stood at 0.26.

A2G U67A: the self-cleavage was 0.3.

For the variant A2U A35U, the self-cleavage is 0.49.

Turning to A2U A35G, the self-cleavage was determined as 1.19.

In the case of A2U A35C, the self-cleavage stood at 0.85.

For the variant A2G G19A, the self-cleavage came to 0.58.

A2G G19U: the self-cleavage was found to be 0.89.

Consider A2G G42U, for which the self-cleavage worked out at 0.55.

As to A2G G42A, the self-cleavage amounted to 0.05.

In the case of A2U A28G, the self-cleavage stood at 0.65.

A2U A28U: the self-cleavage stood at 0.82.

Take A3G A5U: the self-cleavage is 1.04.

On to A3G A5C, for which the self-cleavage was 0.71.

Regarding A3G A5G, the self-cleavage turned out to be 0.76.

A2U U31A: the self-cleavage was determined as 0.48.

On to A2U U31C, for which the self-cleavage is 0.81.

As for A3C C81G, the self-cleavage was 1.19.

Turning to A3C A56G, the self-cleavage worked out at 1.12.

For the variant A3C A56U, the self-cleavage stood at 0.65.

With A3C U67C, the self-cleavage is 0.33.

Consider A2G U43C, for which the self-cleavage is 0.34.

Consider A2G U43A, for which the self-cleavage was 1.02.

A2G U48A: the self-cleavage amounted to 0.09.

For the variant A2G U48C, the self-cleavage was 0.28.

As to A2G A45U, the self-cleavage came out at 0.44.

In the case of A2G A45C, the self-cleavage turned out to be 0.5.

As to A2G A45G, the self-cleavage is 0.45.

Take A2U U25A: the self-cleavage worked out at 0.09.

As to A2U U25C, the self-cleavage is 0.37.

As for A3C U78C, the self-cleavage turned out to be 1.12.

With A2G G10U, the self-cleavage is 0.36.

In the case of A2G G10A, the self-cleavage stood at 0.41.

On to A2G G30A, for which the self-cleavage stood at 0.39.

Turning to A2G G30U, the self-cleavage stood at 0.69.

Consider A3C A28G, for which the self-cleavage is 1.09.

With A2U G19A, the self-cleavage came to 0.29.

Turning to A2G C14U, the self-cleavage was 0.49.

Consider A2U G16A, for which the self-cleavage was found to be 0.18.

As for A2G G70A, the self-cleavage turned out to be 0.16.
